Reference: the supplement of paper PMC12764529
± gives the half width of the 95% confidence interval.

Legend:
[1] = folding stability dG unfold from trypsin proteolysis; higher = more stable
Outline: (§1)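 Sequencing followed digestion of designed mini-proteins with trypsin and chymotrypsin, each at 11 concentrations in threefold dilutions together with a no-protease condition. The mini-proteins were under 80 residues, had no cysteine, sat in a PA-tagged cDNA display construct, and were kept only if AlphaFold2 dimer inter-PAE was above 15. From the counts, Bayesian fitting gave K50, and unfolding free energy was derived against a sequence-predicted unfolded-state K50 and a shared folded-state K50, per protease or combined.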

[2] = folding stability dG unfold from chymotrypsin proteolysis; higher = more stable
Outline: as §1

[3] = folding stability dG unfold (combined trypsin and chymotrypsin); higher = more stable
Outline: as §1

Sequence: SAMSVTISFDPKGPGGTLTITADPNSPQIEKFINELKKKLNLDIKSYTKTILPNGTVKVTLTYSKINLPSAG [r14_655_JUSTAS]
- folding stability dG unfold [1]: 4.05 ± 0.11 kcal/mol
- folding stability dG unfold [2]: 4.657 ± 0.028 kcal/mol
- folding stability dG unfold [3]: 4.51 ± 0.083 kcal/mol

Sequence: SAMTEEEKKKKKEEEEKKKRELKIIVVAKTKDGKWKKIAEFTVKNKDMSIEELVKKLKDLGVEEVKIFPSAG [r14_318_TrROS_Hall]
- folding stability dG unfold [1]: 1.8 ± 0.082 kcal/mol
- folding stability dG unfold [2]: 3.09 ± 0.093 kcal/mol
- folding stability dG unfold [3]: 2.67 ± 0.26 kcal/mol

Sequence: SAMTIEEAIEKGKIGAIVKVEVELPNGGKIEIEIFIESESLEEALEKIKAFFEALNLKVKIIEVKVFPVSAG [r14_854_TrMRF]
- folding stability dG unfold [1]: 3.4 ± 0.19 kcal/mol
- folding stability dG unfold [2]: 2.87 ± 0.1 kcal/mol
- folding stability dG unfold [3]: 3.09 ± 0.36 kcal/mol

Sequence: SAMTITVPPDVSLEQIAKLLGYPNLKSFTKRKVTPNLTPATLTVPEDPNKVIKVLYRPADNYTEVIVLQSAG [r14_713_JUSTAS]
- folding stability dG unfold [1]: 1.02 ± 0.1 kcal/mol
- folding stability dG unfold [2]: 0.822 ± 0.3 kcal/mol
- folding stability dG unfold [3]: 0.921 ± 0.16 kcal/mol

Sequence: SAMTPEEIKERLAAELPPSAEVMTTETFKEGDVEYVKITLRTPDSLSEATYNLETGEIERTPIGLDVPQSAG [r14_737_JUSTAS]
- folding stability dG unfold [1]: 0.423 ± 0.13 kcal/mol
- folding stability dG unfold [2]: 0.923 ± 0.13 kcal/mol
- folding stability dG unfold [3]: 0.792 ± 0.15 kcal/mol

Sequence: SAMTTTETFEEGDYVYTVITTKIPSSLPPDSVVTIPVTTPLGAESEVVSEPGGTITVKVRLKKEDPELLSAG [r14_754_JUSTAS]
- folding stability dG unfold [1]: -1.57 ± 0.3 kcal/mol
- folding stability dG unfold [2]: 0.14 ± 0.088 kcal/mol
- folding stability dG unfold [3]: -0.176 ± 0.13 kcal/mol

Sequence: SAMTVELTLPSEELVEKIKELLPSYVKIEKVEVDEETKTVTVTVSFDPNLSPEEQQAVVEKIKKLIEEKSAG [r14_306_JUSTAS]
- folding stability dG unfold [1]: 2.7 ± 0.2 kcal/mol
- folding stability dG unfold [2]: 3.56 ± 0.26 kcal/mol
- folding stability dG unfold [3]: 3.4 ± 0.28 kcal/mol

Sequence: SAMVEVSTLPDGTTRVTITGKDPAAFEKELAELIEKIKKEGINATITKTREEPIPEEPELYRAELEIIVSAG [r14_119_JUSTAS]
- folding stability dG unfold [1]: 1.54 ± 0.062 kcal/mol
- folding stability dG unfold [2]: 1.48 ± 0.055 kcal/mol
- folding stability dG unfold [3]: 1.54 ± 0.25 kcal/mol

Sequence: SAMVIIRVENKDGKTIEIAIPVRNEDGKLTKEELEELAKRLAEELAEELGLEDVKVEVEVRPLSEEELKSAG [r14_378_TrROS_Hall]
- folding stability dG unfold [1]: 1.64 ± 0.091 kcal/mol
- folding stability dG unfold [2]: 2.68 ± 0.081 kcal/mol
- folding stability dG unfold [3]: 2.35 ± 0.17 kcal/mol

Sequence: SAMVITIHPDIPLEELAELLGFPEIEDATVEPLNEGIVPATFHIPEDPDKVILIDFNPEPDFALVLVLSSAG [r14_713_TrMRF]
- folding stability dG unfold [1]: 1.59 ± 0.067 kcal/mol
- folding stability dG unfold [2]: 2.25 ± 0.038 kcal/mol
- folding stability dG unfold [3]: 1.98 ± 0.17 kcal/mol

Sequence: SAMVLVKIELYDPENEEPLATAEFVVPEEDLEAFVEEAKKIFGVAEDAFIKVEAAPLEPLTDESGEEVLSAG [r14_297_TrMRF]
- folding stability dG unfold [1]: 2.08 ± 0.12 kcal/mol
- folding stability dG unfold [2]: 1.786 ± 0.014 kcal/mol
- folding stability dG unfold [3]: 1.94 ± 0.062 kcal/mol

Sequence: SAMVRIERLPDGSLLVVVESEGKEEGLEFIERFIEEIKSLGIDAEIELLSIEEIPEDPKRYRATFLIKASAG [r14_119_TrMRF]
- folding stability dG unfold [1]: 4.83 ± 0.22 kcal/mol
- folding stability dG unfold [2]: 6.12 ± 0.27 kcal/mol
- folding stability dG unfold [3]: > 6 kcal/mol

Sequence: SAMVSPEEAAKLIAEKIREEHPDPNIVVPVKVEYDPETNTTTITVTVKYPDDPSTETFTYTLAPDDVLKSAG [r14_849_JUSTAS]
- folding stability dG unfold [1]: 1.53 ± 0.044 kcal/mol
- folding stability dG unfold [2]: 2.19 ± 0.11 kcal/mol
- folding stability dG unfold [3]: 1.9 ± 0.082 kcal/mol

Sequence: SAMVTARVSDSVLRAYRLPDGYVRLVVFDPKTGEPVVEFVVPEDLITDIVEVGDKAVIHVDVKEEDLKLSAG [r14_755_TrMRF]
- folding stability dG unfold [1]: 1.28 ± 0.043 kcal/mol
- folding stability dG unfold [2]: 1.98 ± 0.064 kcal/mol
- folding stability dG unfold [3]: 1.69 ± 0.077 kcal/mol

Sequence: SAMVVSEELSPEGTRTTTTFNPATGTSTTTTTPIPEEPPLPPVSIPTSLSPEEREALREELEAAGVPVVLGS [r1_242_JUSTAS]
- folding stability dG unfold [1]: 1.22 ± 0.047 kcal/mol
- folding stability dG unfold [2]: 0.0811 ± 0.093 kcal/mol
- folding stability dG unfold [3]: 0.652 ± 0.079 kcal/mol

Sequence: SANEKVTVEVKIRFYFRFPKGQPFPFDITVPVTVEYDPNDPDKAKEEAKEKAIDEAIDEFRERFGYPLPSAG [r14_117_TrROS]
- folding stability dG unfold [1]: 1.75 ± 0.13 kcal/mol
- folding stability dG unfold [2]: 2.72 ± 0.13 kcal/mol
- folding stability dG unfold [3]: 2.37 ± 0.19 kcal/mol

Sequence: SANMDMPPGFKPIARDDDITIWQNPNPVYIMIRGPDGKHKMLPFNPGDPEKIKDLIREFADDGITDIMISAG [r14_12_TrROS]
- folding stability dG unfold [1]: 1.43 ± 0.016 kcal/mol
- folding stability dG unfold [2]: 0.657 ± 0.12 kcal/mol
- folding stability dG unfold [3]: 1.09 ± 0.15 kcal/mol

Sequence: SANTRSIPFPGSADDIVDEIKNLIDANPDVKIRIQPMDGEEYEIDIEGIEKIKVERMPDGWYMITVELPSAG [r14_807_TrROS]
- folding stability dG unfold [1]: 0.283 ± 0.33 kcal/mol
- folding stability dG unfold [2]: 1.63 ± 0.13 kcal/mol
- folding stability dG unfold [3]: 1.16 ± 0.21 kcal/mol

Sequence: SANVRRREIRIPAKDMPPNQIRDALRDLGFPPSKIENLDIERHKGNMITVKIYWTFENGQKQKIELHIPSAG [r14_30_TrROS]
- folding stability dG unfold [1]: -0.105 ± 0.24 kcal/mol
- folding stability dG unfold [2]: 1.29 ± 0.21 kcal/mol
- folding stability dG unfold [3]: 1.11 ± 0.19 kcal/mol

Sequence: SANWHRFTIEAWVPVRDPNGKPIRPEQVEEQAERIANELWPRGFPIKDVTVEQHPDGWVRITATIEVPDSAG [r14_470_TrROS]
- folding stability dG unfold [1]: 2.47 ± 0.08 kcal/mol
- folding stability dG unfold [2]: 3.137 ± 0.022 kcal/mol
- folding stability dG unfold [3]: 2.94 ± 0.11 kcal/mol

Sequence: SAPDKIEIPITFPNGYTFWIKIDPDRIRVTWMDNGLRREKEITPDGMIKLDFRMPNGRPIMSPTIPLEDSAG [r14_213_TrROS]
- folding stability dG unfold [1]: 0.984 ± 0.028 kcal/mol
- folding stability dG unfold [2]: 1.93 ± 0.12 kcal/mol
- folding stability dG unfold [3]: 1.54 ± 0.059 kcal/mol

Sequence: SAPDVGPEERARRLIEEARAEVEAARAAGDPSVPRRVVFDELAVAHPEEAARILEEAARLGIPVEVRPPSAG [r14_908_JUSTAS]
- folding stability dG unfold [1]: 0.252 ± 0.11 kcal/mol
- folding stability dG unfold [2]: 0.98 ± 0.044 kcal/mol
- folding stability dG unfold [3]: 0.748 ± 0.083 kcal/mol

Sequence: SAPILPDAVVSEKPSVSQLPGNSTLVTTTYTYPGGPTITKTTTYTVDPSTGKWTTTSSTTLTPEAAAAASAG [r14_842_JUSTAS]
- folding stability dG unfold [1]: 0.377 ± 0.041 kcal/mol
- folding stability dG unfold [2]: 0.977 ± 0.075 kcal/mol
- folding stability dG unfold [3]: 0.754 ± 0.066 kcal/mol

Sequence: SAPKIDSISIMWPGNHWYISIWYPDKNGEPMKEVMFPFESPEDLKDQIEELSPPGDVTVDIYPMPPDAFSAG [r14_964_TrROS]
- folding stability dG unfold [1]: 1.38 ± 0.047 kcal/mol
- folding stability dG unfold [2]: 1.54 ± 0.036 kcal/mol
- folding stability dG unfold [3]: 1.51 ± 0.098 kcal/mol

Sequence: SAPKLEIEEVHVNPNDGMVMITFQIDNLPPGLKITIKPKNGKPRRWTGEPGKPIMFMIPPGVDDIEIEWSAG [r14_671_TrROS]
- folding stability dG unfold [1]: 1.64 ± 0.048 kcal/mol
- folding stability dG unfold [2]: 2.06 ± 0.11 kcal/mol
- folding stability dG unfold [3]: 1.94 ± 0.15 kcal/mol

Sequence: SAPKNYRFKIYFPNGVEFTIPPGWDLEIEEFDPEDGVIRIKMTRYDKDDGKPVEKHDFPFPFRILEPDPSAG [r14_927_TrROS]
- folding stability dG unfold [1]: 1.73 ± 0.06 kcal/mol
- folding stability dG unfold [2]: 1.84 ± 0.23 kcal/mol
- folding stability dG unfold [3]: 1.89 ± 0.25 kcal/mol

Sequence: SAPLDPDQAKEQAENIADYFQDEMQDQFGMDPSDIDVDVKVEQEPNGHYRITVEITMGNMPIEMEIYVPSAG [r14_226_TrROS]
- folding stability dG unfold [1]: 1.45 ± 0.11 kcal/mol
- folding stability dG unfold [2]: 2.1 ± 0.049 kcal/mol
- folding stability dG unfold [3]: 1.8 ± 0.12 kcal/mol

Sequence: SAPLKIDLDIEPIPPGDKVRFNARITYPDGHPIRIPFEIYVPPDEIVIKFPIQDPKNGEPIAPLTFVIKSAG [r14_670_TrROS]
- folding stability dG unfold [1]: 1.53 ± 0.046 kcal/mol
- folding stability dG unfold [2]: 1.97 ± 0.2 kcal/mol
- folding stability dG unfold [3]: 1.67 ± 0.19 kcal/mol

Sequence: SAPLTPEEAEEWAETLADELADKAGIPNVEIKVEPSPDGYWTAEIRFPNNGKKIRITWENGRPKITEIESAG [r14_925_TrROS]
- folding stability dG unfold [1]: 2.84 ± 0.2 kcal/mol
- folding stability dG unfold [2]: 2.63 ± 0.093 kcal/mol
- folding stability dG unfold [3]: 2.74 ± 0.16 kcal/mol

Sequence: SAPPLPPETITLTLTIDGYEITVTLTRLPDGTVKLTVTVTLPDGTTVTITMYFDAKTNKWYITKIEITPPSA [r9_795_TrROS_Hall]
- folding stability dG unfold [1]: 4.04 ± 0.48 kcal/mol
- folding stability dG unfold [2]: 5.19 ± 0.12 kcal/mol
- folding stability dG unfold [3]: 5.26 ± 0.33 kcal/mol

Sequence: SAPPPVQTLTLTVYDPETGRLVKIEVTRRPDGTLEVRVEVVDLETNEVTTETITLPGLTLDELLKLLEEASA [r9_618_TrROS_Hall]
- folding stability dG unfold [1]: 3.09 ± 0.16 kcal/mol
- folding stability dG unfold [2]: 4.02 ± 0.16 kcal/mol
- folding stability dG unfold [3]: 3.65 ± 0.16 kcal/mol

Sequence: SAPPRTFIIPIERNPDGNVRLNIRMPGMEIEYEFPPGKDAEDALDKLSPHPGFNVELTEVDPNWIKITFSAG [r14_404_TrROS]
- folding stability dG unfold [1]: 1.3 ± 0.23 kcal/mol
- folding stability dG unfold [2]: 1.75 ± 0.35 kcal/mol
- folding stability dG unfold [3]: 1.28 ± 0.48 kcal/mol

Sequence: SAPSPKTPETLVFLSEEESEVVEERLSPSGKPFLVKRKRRFLRYRYVDEDGNVTSVGEREEPVEEELVLSAG [r14_934_JUSTAS]
- folding stability dG unfold [1]: 0.985 ± 0.094 kcal/mol
- folding stability dG unfold [2]: 0.231 ± 0.13 kcal/mol
- folding stability dG unfold [3]: 0.672 ± 0.087 kcal/mol

Sequence: SAPSPSVPLDPVTTETVLVKDPEKGEEITLEILTDANSDEVLVRITYPDGSEVVLRLKKEEVEKVIEALSAG [r14_240_JUSTAS]
- folding stability dG unfold [1]: 4 ± 0.37 kcal/mol
- folding stability dG unfold [2]: 3.08 ± 0.11 kcal/mol
- folding stability dG unfold [3]: 3.41 ± 0.12 kcal/mol

Sequence: SAPVIEITEVTFNPDGSVEVTLVIPFPDDPEIPPEEIAKAIKEAFGFEEVTVEPIPETGAWRITLRAPGSAG [r14_228_TrMRF]
- folding stability dG unfold [1]: 3.4 ± 0.14 kcal/mol
- folding stability dG unfold [2]: 4.18 ± 0.089 kcal/mol
- folding stability dG unfold [3]: 4.07 ± 0.12 kcal/mol

Sequence: SAPVVVVETIPDGGVLIVPAVFEPDKLLEYVEEIVNKIKPKGAEVEAKVIKVEPFEDFVVVTFEVKVKPSAG [r14_345_TrMRF]
- folding stability dG unfold [1]: 1.69 ± 0.12 kcal/mol
- folding stability dG unfold [2]: 1.7 ± 0.032 kcal/mol
- folding stability dG unfold [3]: 1.68 ± 0.16 kcal/mol
